The record followed here is US20250215091A1, “Anti-GAL3 Antibodies and Compositions” (Les Laboratoires Servier, priority 2022, published 2025).

Residue numbers refer to the chain shown, from its start.

The chains are these.
T1: Gal3 CRD domain from rat (rat, UniProt P08699 118-262, limits assumed)
T1 construct: domain: CRD domain; also called rat Gal3-CRD
T1 sequence (looked up): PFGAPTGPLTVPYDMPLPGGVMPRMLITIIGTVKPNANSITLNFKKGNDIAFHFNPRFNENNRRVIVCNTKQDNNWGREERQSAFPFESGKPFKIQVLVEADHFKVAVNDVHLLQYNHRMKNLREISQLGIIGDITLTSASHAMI

T2: Gal3 CRD domain from dog (dog, UniProt P38486 152-296, limits assumed)
T2 construct: domain: CRD domain; also called dog Gal3-CRD
T2 sequence (looked up): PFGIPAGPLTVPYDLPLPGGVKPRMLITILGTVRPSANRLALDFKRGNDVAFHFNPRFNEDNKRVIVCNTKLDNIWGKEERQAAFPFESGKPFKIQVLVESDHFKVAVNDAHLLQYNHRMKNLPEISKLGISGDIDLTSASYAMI

B1: anti-Gal3 antibody D06 (antibody, V domains shown)
VH: EVQLVESGGSLVKPGGSLRLSCAASGFTFSNYNMNWVRQAPGKGLEWISSIYGSSRYIYYADFVKGRFTISRDNAKNSLYLQMNSLRAEDTAVYYCVRSGYGGMDVWGRGTLVTVSS
VL: QSVLTQPASVSGSPGQSITISCAGTSSDVGGYNGVSWYQQHPGKAPKLMIYYDSYRPSGVSNRFSGSKSGNTASLTISGLQAEDEADYYCSSGTDYSTRVFGGGTKLEIK
B2: anti-Gal3 antibody G03 (antibody, V domains shown)
VH: B1 VH with N33A, G100Y, Y101N
VL: B1 VL with N33Y, G34N, S36A, G93S, D95G
B3: anti-Gal3 antibody D11 (antibody, V domains shown)
VH: B1 VH with G100S
VL: B1 VL with Y32S, N33Y, G34N, S36A, G93Y, D95G
B4: anti-Gal3 antibody E01 (antibody, V domains shown)
VH: EVQLVESGGSLVKPGGSLRLSCAASGFTFSNNYMNWVRQAPGKGLEWISNINGASRNIAYADFVKGRFTISRDNAKNSLYLQMNSLRAEDTAVYYCVRSSDYDGGMDVWGRGTLVTVSS
VL: B1 VL with Y32N, N33S, G34Y, G93S, D95Y, Y96G
B5: anti-Gal3 antibody E02 (antibody, V domains shown)
VH: EVQLVESGGSLVKPGGSLRLSCAASGFTFSNYAMNWVRQAPGKGLEWISSIYGSSRSISYADFVKGRFTISRDNAKNSLYLQMNSLRAEDTAVYYCVRSSYNYYYGNGMDVWGRGTLVTVSS
VL: B1 VL with N33G, G93S, D95S
B6: anti-Gal3 antibody E07 (antibody, V domains shown)
VH: B1 VH with S50N, G100Y
VL: B1 VL with N33Y, G34S, Y55N, G93Y, D95G
B7: anti-Gal3 antibody H07 (antibody, V domains shown)
VH: B1 VH with S50N, Y52D, G100Y
VL: B1 VL with N33Y, G34N, S36A, G93S, D95G

T7 sequence (P09382 2-135 limits assumed): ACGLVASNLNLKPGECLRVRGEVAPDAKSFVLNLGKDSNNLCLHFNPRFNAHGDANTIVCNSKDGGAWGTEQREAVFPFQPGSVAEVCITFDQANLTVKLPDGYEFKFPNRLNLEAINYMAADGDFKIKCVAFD
T3 sequence (P16110 2-264 limits assumed): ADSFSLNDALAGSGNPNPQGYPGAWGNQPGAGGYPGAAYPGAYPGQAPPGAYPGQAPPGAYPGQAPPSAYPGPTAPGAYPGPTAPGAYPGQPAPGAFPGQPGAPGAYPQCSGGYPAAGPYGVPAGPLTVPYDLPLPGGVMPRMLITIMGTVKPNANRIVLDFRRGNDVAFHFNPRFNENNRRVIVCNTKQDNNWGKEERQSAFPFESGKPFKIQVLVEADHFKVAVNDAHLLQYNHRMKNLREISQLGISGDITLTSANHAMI

One assay addresses T3, full length mouse Galectin-3 (mouse, UniProt P16110 2-264).
T3 construct: Printed as 'full length'; recombinant, immobilized through a histidine tag; also called m-Gal3-FL; murine Gal3
The experiment in a line: dose-response ELISA on immobilized m-Gal3-FL, IgG. The method, then: (§1) To determine the half maximal effective concentration (EC50) of the antibodies, ELISA dose-response experiments were performed on Hu-Gal3-FL and on m-Gal3-FL.
(§2) Hu-Gal3-FL and m-Gal3-FL were immobilized at 3 μg/mL through their His-tag on functionalized microplates as before. A 3.3-fold serial dilution was carried-out with the purified IgGs, added to the wells containing immobilized Hu-Gal3-FL or m-Gal3-FL and detected with an anti-Fab.HRP antibody.
Turning to B1, it took 0.16 nM to reach a half-maximal effect (EC50).

As for B2, the midpoint of the response, the EC50, lay at 13.6 nM. Compared with the last molecule, the EC50 is about 85-fold higher.

Turning to B3, the EC50 was 0.99 nM.

Consider B4, for which a half-maximal effect (EC50) was put at 25.9 nM.

In the case of B5, the EC50 was determined as 76 nM.

In turn, B6 showed an EC50 of 0.3 nM.

With B7, the EC50 came out at 88 nM.

The target in another assay is T4, full length human Galectin-3 (human, UniProt P17931 2-250).
T4 construct: Printed as 'full length'; recombinant, immobilized through a histidine tag; also called hu-Gal3-FL; Hu-Gal3-FL
T4 sequence (P17931 2-250 limits assumed): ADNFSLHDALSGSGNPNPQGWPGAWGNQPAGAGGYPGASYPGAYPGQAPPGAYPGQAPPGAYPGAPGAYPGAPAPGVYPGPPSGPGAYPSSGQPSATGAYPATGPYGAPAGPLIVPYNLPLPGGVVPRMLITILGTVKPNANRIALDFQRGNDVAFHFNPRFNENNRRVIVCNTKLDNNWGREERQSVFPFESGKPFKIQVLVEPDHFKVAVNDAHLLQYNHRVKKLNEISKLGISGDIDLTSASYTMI
The assay is described as follows: dose-response ELISA on immobilized Hu-Gal3-FL, IgG. The procedure:
as §1, §2
(An ELISA detects its analyte on a solid surface through an enzyme-linked reagent.)
In turn, B1 displayed an EC50 of 0.26 nM.

Molecule B2 had an EC50 of 0.52 nM.

The molecule B3 registered an EC50 of 0.37 nM.

Consider B4, for which the EC50 was determined as 14.3 nM.

Molecule B5 showed an EC50 of 34 nM. Against the preceding molecule, the EC50 is about 2.4-fold higher.

The molecule B6 returned an EC50 of 0.07 nM.

B7 returned an EC50 of 2.4 nM. This EC50 is about 34-fold higher than that of the molecule before.

The target of the next assay is T3, full length mouse Galectin-3. The experiment in a line: ratio of the ELISA EC50 values on Hu-Gal3-FL and m-Gal3-FL. The procedure:
as §1, §2
Regarding B1, the “Ratio (Human/mouse Gal3 EC50 ratio)” value turned out to be 2.

As to B2, the “Ratio (Human/mouse Gal3 EC50 ratio)” value came out at 26.

As for B3, the “Ratio (Human/mouse Gal3 EC50 ratio)” value amounted to 3.

With B4, the “Ratio (Human/mouse Gal3 EC50 ratio)” value was found to be 2.

Turning to B5, the “Ratio (Human/mouse Gal3 EC50 ratio)” value came out at 2.

In the case of B6, the “Ratio (Human/mouse Gal3 EC50 ratio)” value turned out to be 4.

On to B7, for which the “Ratio (Human/mouse Gal3 EC50 ratio)” value turned out to be 37.

For a further assay, the target named is T5, CRD domain of human Galectin-3 (human, UniProt P17931 106-250).
T5 construct: Histidine-tagged; also called hu-Gal3-CRD; Hu-Gal3-CRD
T5 sequence (P17931 106-250 limits assumed): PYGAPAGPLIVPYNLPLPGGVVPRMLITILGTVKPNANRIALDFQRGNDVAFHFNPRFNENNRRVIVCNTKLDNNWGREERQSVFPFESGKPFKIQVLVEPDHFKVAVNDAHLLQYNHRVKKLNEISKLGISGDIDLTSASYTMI
The assay is described as follows: SPR single-cycle kinetics, captured antibody, Gal3-CRD 0.5-50 nM. The procedure: (§3) The CM5 sensor surface was first immobilized with an anti-human Fc mAb using a standard protocol. The entire sensor surface was first activated by injecting a 1:1 (v/v) mixture of 400 mM EDC and 100 mM NHS at a flow rate of 10 μL/minute for 7 minutes. Monoclonal anti-human Fc antibody (Millipore AP113), 25 μg/mL in Na acetate pH5, 360 s were flowed at 10 μL/minute to reach 10000 RU on both flow cells followed by the injection of 1 M ethanolamine, pH8.5 for 7 minutes at a flow rate of 10 μL/minute. During the entire immobilization procedure, HBS-P was used as the running buffer.
(§4) Antibody samples were prepared at 5 μg/ml and were injected for 30 seconds at 10 μL/minute. In general, 400 to 680 resonance units of antibodies were captured on the chip.
(§5) Kd values were also determined by SPR using […] kinetics analysis. A total of 5 concentrations of Gal3 CRD domain from human, dog, rat and cynomolgus (Novalix) [0.5-50] nM were injected over the antibody capture surfaces for 210 seconds followed by a dissociation phase of 600 seconds at 30 μL/minute. At the end of each cycle, capture surfaces were regenerated by 2 injections of glycine pH 1.5, for 30 seconds at 10 μL/minute, followed by an extra wash with glycine pH 1.5. Fresh antibody was captured at the beginning of each cycle.
B1 returned a Kd of 15 nM.

In turn, B3 showed a Kd of 26 nM. Against the preceding molecule, the Kd is about 1.7-fold higher.

As for B6, the Kd worked out at 14 nM. Compared with the last molecule, the Kd is about 1.9-fold lower.

Another assay addresses T1, Gal3 CRD domain from rat. The description is as above. The method, then:
as §3, §4, §5
In turn, B1 yielded a Kd of 4.8 nM.

Turning to B3, binding was put at a Kd of 8.6 nM.

Molecule B6 showed a Kd of 15 nM.

The next assay addresses T6, Gal3 CRD domain from cynomolgus (cynomolgus, UniProt A0A7N9CYL1 103-247).
T6 construct: domain: CRD domain; also called cynomolgus Gal3-CRD
The description is as above. The procedure:
as §3, §4, §5
Regarding B1, binding was characterised by a dissociation constant (Kd) of 10 nM.

B3 returned a Kd of 11 nM.

Take B6: the Kd was 7.4 nM.

A further assay deals with T2, Gal3 CRD domain from dog. The assay is described as above. The method, then:
as §3, §4, §5
With B1, binding was characterised by a dissociation constant (Kd) of 12 nM.

On to B3, for which the Kd turned out to be 26 nM.

On to B6, for which the Kd is 23 nM. This Kd and that of the molecule before are within 1.5-fold of each other.

The target in the next assay is T4, full length human Galectin-3. The assay is described as follows: SPR Biacore T-200, antibody captured by anti-human Fc, Gal3 in solution. The method, then:
as §3, §4
On the technique in general: SPR reads the build-up and loss of mass on a sensor chip optically.
Molecule B1 showed a Kd of 13 nM.

As to B2, binding was put at a Kd of 6 nM.

B3 yielded a Kd of 15 nM.

Regarding B4, the Kd came out at 6.26 nM.

B5: the affinity, expressed as Kd, was 7.38 nM.

In turn, B6 yielded a Kd of 9 nM.

B7 yielded a Kd of 5.65 nM.

In the next assay the target is T3, full length mouse Galectin-3. The assay is described as above. The procedure:
as §3, §4
B1 registered a Kd of 1.34 nM.

B2 returned a Kd of 4.53 nM.

Consider B3, for which the Kd came to 2.8 nM.

B4 showed a Kd of 7.81 nM.

On to B5, for which binding was characterised by a dissociation constant (Kd) of 4.13 nM. Against the preceding molecule, the Kd is about 1.9-fold lower.

In turn, B6 gave a Kd of 4.14 nM.

B7: the Kd was 4.86 nM. This Kd and that of the molecule before are within 1.5-fold of each other.

The target in the next assay is T5, CRD domain of human Galectin-3. The experiment in a line: competitive ELISA, inhibition of ASF binding to immobilized Hu-Gal3-CRD. The method, then:
The inhibitory properties and IC50 of the anti-Gal3 antibodies were determined in an ELISA competitive assay by measuring the binding of ASF to immobilized CRD domain of human Gal3 in absence or presence of the antibodies at different concentrations.
The inhibition assay was performed on Hu-Gal3-CRD which was immobilized at 1 μg/mL through its His-tag on functionalized microplates. A 2-fold or 3-fold serial dilution was carried-out with the purified IgGs and added to the wells with immobilized Hu-Gal3-CRD. ASF (A1908-Sigma reference) was added at 8 μg/mL in each well with or without IgGs. ASF binding to Hu-Gal3-CRD was detected with the HRP-labeled anti-ASF sheep antibody. IC50 were estimated according to the model equation Y=Bottom+(Top−Bottom)/(1+(X/IC50)). Indicative maximal percentages of inhibition were obtained with the formula: 100%−(((mean of bottom plateau values of IgGs)×100%)/mean of irrelevant IgG values)
For the molecule B1, the IC50 came out at 5.1 nM and the Max % inhibition is 82%.

B2: the half-maximal inhibitory concentration (IC50) was 1.8 nM and the Max % inhibition was determined as 83%.

Molecule B3 returned an IC50 of 2.2 nM and a Max % inhibition of 99%.

In turn, B4 gave an IC50 of 3.2 nM and a Max % inhibition of 63%.

Molecule B5 yielded an IC50 of 5.2 nM and a Max % inhibition of 65%.

The molecule B6 had an IC50 of 1.5 nM and a Max % inhibition of 89%.

B7 yielded an IC50 of 6 nM and a Max % inhibition of 74%.

The next assay has as its target T7, human full-length Galectin-1 (human, UniProt P09382 2-135).
T7 construct: full-length; Histidine-tagged; also called Hu-Gall; Gall
The experiment in a line: ELISA on immobilised antigen (3 µg/mL), purified IgG at 15-20 µg/mL, anti-Fab.HRP, OD 450 nm. The method, then:
(§6) IgG specificity to Gal3 was tested by checking the absence of binding on human Gall and Gal7 by ELISA.
(§7) Hu-Gall and Hu-Gal7 were immobilized at 3 μg/mL. Purified IgGs were added into the wells (15-20 μg/mL final concentration) and detected with an anti-Fab.HRP antibody. Rabbit antibodies directed against Gall (Abcam ab25138 reference) and Gal7 (Abcam ab108623 reference) were used at 5 μg/mL as antigen-coating positive controls and detected with an anti-rabbit.HRP secondary antibody (7074S-Cell Signaling reference).
As for B1, the binding result was “no binding (tested: 15-20 µg/mL)”.

On to B2, for which the binding result is “no binding (tested: 15-20 µg/mL)”.

For the molecule B3, the binding result is given as “no binding (tested: 15-20 µg/mL)”.

On to B4, for which the binding result was “no binding (tested: 15-20 µg/mL)”.

For the molecule B5, the binding result was “no binding (tested: 15-20 µg/mL)”.

Regarding B6, the binding result is “no binding (tested: 15-20 µg/mL)”.

Consider B7, for which the binding result is listed as “no binding (tested: 15-20 µg/mL)”.

The target in the next assay is T8, human full-length Galectin-7 (human, UniProt P47929 1-136).
T8 construct: full-length; Histidine-tagged; also called Hu-Gal7; Gal7
T8 sequence (P47929 whole entry): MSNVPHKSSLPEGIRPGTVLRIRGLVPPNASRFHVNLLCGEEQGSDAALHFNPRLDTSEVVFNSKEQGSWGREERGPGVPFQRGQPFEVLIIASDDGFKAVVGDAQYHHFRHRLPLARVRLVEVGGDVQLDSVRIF
The description is as above. The procedure:
as §6, §7
For B1, the binding result was “no binding (tested: 15-20 µg/mL)”.

With B2, the binding result is on record as “no binding (tested: 15-20 µg/mL)”.

In the case of B3, the binding result was “no binding (tested: 15-20 µg/mL)”.

For the molecule B4, the binding result is on record as “no binding (tested: 15-20 µg/mL)”.

Turning to B5, the binding result is on record as “no binding (tested: 15-20 µg/mL)”.

Consider B6, for which the binding result is given as “no binding (tested: 15-20 µg/mL)”.

For B7, the binding result is listed as “no binding (tested: 15-20 µg/mL)”.

As usually defined, the EC50 is the midpoint of the concentration-response curve. For orientation: Kd means the constant that tells how readily two partners part at equilibrium. Lower therefore signals a tighter complex. Broadly, the IC50 is the midpoint of a concentration-inhibition curve. A low value points to greater potency.
